The chains are these.
T1: peanut allergen Ara h 1 (peanut (Arachis hypogaea), UniProt P43238 26-626)
T1 construct: also called F422
T1 sequence (looked up): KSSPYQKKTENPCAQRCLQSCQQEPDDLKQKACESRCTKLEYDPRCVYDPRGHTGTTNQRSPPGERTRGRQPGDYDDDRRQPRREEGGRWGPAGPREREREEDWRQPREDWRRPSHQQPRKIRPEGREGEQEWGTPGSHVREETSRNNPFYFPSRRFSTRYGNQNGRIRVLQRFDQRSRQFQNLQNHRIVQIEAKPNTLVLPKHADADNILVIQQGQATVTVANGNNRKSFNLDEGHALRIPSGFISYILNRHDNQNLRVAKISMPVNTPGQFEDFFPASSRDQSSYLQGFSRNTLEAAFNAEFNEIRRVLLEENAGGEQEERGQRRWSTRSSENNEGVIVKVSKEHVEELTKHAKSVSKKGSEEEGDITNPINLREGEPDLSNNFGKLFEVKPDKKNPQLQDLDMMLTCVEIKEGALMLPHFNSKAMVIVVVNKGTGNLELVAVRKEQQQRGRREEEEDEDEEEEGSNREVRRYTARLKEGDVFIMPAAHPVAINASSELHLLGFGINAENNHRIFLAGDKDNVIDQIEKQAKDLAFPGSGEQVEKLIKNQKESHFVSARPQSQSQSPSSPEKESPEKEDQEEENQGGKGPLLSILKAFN

T2: peanut allergen Ara h 6 (peanut (Arachis hypogaea), UniProt Q647G9 22-145)
T2 construct: also called recombinant Ara h 6
T2 sequence (looked up): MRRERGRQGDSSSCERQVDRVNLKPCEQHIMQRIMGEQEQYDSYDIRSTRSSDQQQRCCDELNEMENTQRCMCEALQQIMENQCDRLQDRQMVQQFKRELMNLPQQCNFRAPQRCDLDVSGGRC

B1: human IgE mAb 3B10 (antibody, V domains shown)
VH: EVQLVESGGALVKPGGSLRLSCEGSGFMFSSAWLHWVRQAPGMGLELVGRMKSETDGGTLDYTAPVRGRFTISRDDSKNMFFLQMNSLKAEDTAVYYCVTGNFDYRSSPLGFWGQGALVTVSS
VL: DIQMTQSPSTLSASAGDRVTITCRASENIYKWLAWYQQKPGKAPKLLIYKVSTLESGVPSRFSGSGFGTEFTLTISSLQPGDFATYYCQHYNSFPFTFGQGTKLEVK
notes: human IgE from hybridoma
B2: human IgE mAb 40C7 (antibody, V domains shown)
VH: EVQLVESGGDLVQPGGSLRLSCAASRFSFGSYAMSWVRQAPGKGLEWVSAISSSGGRAYYADSVKGRFTISRDNSRNTLYLQLNSLRGEDTAFYYCTKEGDTGSLWLFDSWGQGTLVTVSS
VL: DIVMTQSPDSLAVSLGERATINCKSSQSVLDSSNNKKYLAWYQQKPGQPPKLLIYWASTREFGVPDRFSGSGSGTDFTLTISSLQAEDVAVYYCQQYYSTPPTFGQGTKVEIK
notes: human IgE from hybridoma
B3: human IgE mAb 9A11 (antibody, V domains shown)
VH: EVQLVESGGGLVRPGGSLRLSCVASGFTFNTYWMHWVRQAPGKGLLWVSSLNKDGSSPTYADSVKGRFTISRDNTNNTLFLQLDSLRAEDTAVYYCVRDRRAVTTARYFDLWGRGTLVTVSS
VL: DIVMTQSPESLAVSLGERATINCKSSSNIDNYLGWYQQRPGQPPKLLIYWASKRESGVPDRFSGSGSGTDFTLTIGRLQAEDVAVYYCQQYYTSPPVTFGGGTKVEIK
notes: human IgE from hybridoma
B4: human IgE mAb 20M10 (antibody, V domains shown)
VH: EVQLVESGGGLVKPGGSLRLSCTVSGFTFNMHSMNWVRQAPGKGLEWVSFISSTSTYIYYPDSVKGRFTVSRDNSKNSLYLQMTSLRAEDTAVYYCVRRGRGGAARALDNWGQGTLVTVSS
VL: SYVLPQTPSLSVAPGQTATISCGGNNTGSKSVHWYQQKPGQAPLLVVYDNSDRPSGIPERFSGSNSGNTATLTLSRVEAEDEADYYCQVWDSTIDHVIFGGGTKLTVL
notes: human IgE from hybridoma
B5: human IgE mAb 21C10 (antibody, V domains shown)
VH: EVQLVESGGGLVKPGGSLRLSCAASGFILSRSSMSWVRQAPGKGLEWVSYISSTSSHIYYADSLKGRFTISRDNTENSVYLQMSSLRAEDTGVYYCARKTNGAWFLDLWGRGTLVTVSS
VL: QSVLTQPPSVSGAPGQRVTISCTGSSSNIGAGSDVHWYQQFPGSAPHVLIYGNNQRPSGVPDRFSASKSGTSASLAITGLQADDEADYYCQSYDYDLSGSWVFGGGTKLTVL
notes: human IgE from hybridoma
B6: human IgE mAb 1A8 (antibody, V domains shown)
VH: QLQLQESGPGLVKPSETLSLTCSVSDDSISTPSYFWTWIRQPPGKGLEWIASIYYTGTTYYNPSLKSRVTLSVDTPKRQFFLRLSSVTAADTAVYYCARYLDYVWLRAFDVWGQGAMVTVSS
VL: EIVLTQSPATLSLSPGERATLSCRASPSVGRFLAWYQQKPGQAPRLLIYDASQRATDIPARFSASGSGTDFTLTIDSLEPEDFAIYYCQHRSNWPVTFGGGTRVEIK
notes: human IgE from hybridoma
B7: human IgE mAb 15C2 (antibody, V domains shown)
VH: QVQLVQSESELKKPGASVKISCKASGYDLTKYAMNWVRQAPGQGLEWMGWINTNTAKPTYAQGFTGRFVFSLDTSVRTIYLEISNLKAEDTAIYYCSRDGSGASWGQGTLVTVSS
VL: DIQMTQSPSTLSASVGDRVTITCRASQNIGRWLAWHQQKPGKAPKVLITKASNLESGVPSRFTGSGSGTDFTLTITSLQPDDFATYYCQQYTTYSGTFGQGTRVEIK
notes: human IgE from hybridoma
B8: human IgE mAb 3C3 (antibody, V domains shown)
VH: QLQLQESGPGLVKPSETLSLTCSISGASINSDDYYWGWIRQAPGEALEWIASIDASGTTFYNPSLRSRVTISVDTSTNQISLRLNSVTAADTAIYYCARRKTYYDFLTDYYNWYFDVWGRGTLVTVSS
VL: QSALTQPRSVSGSPGQSVTFSCTGINSDIRDYDYVSWYQQHPGEAPKLIIYDVTKRASGVPSRFSGSKSGNTASLTISGLQAEDEADYYCCSYSVTYSFEVFGTGTQVSVL
notes: human IgE from hybridoma
B9: human IgE mAb 3B7 (antibody, V domains shown)
VH: QVQLVQSGSELKKPGASMKVSCKASGYTFTNYAMNWVRQAPGQGLEWMGWINTNTGKPTYAQGFTGRFVFSLDTSVSMAYLQISSLEAGDTAVYFCARGESLAALGSFAYWGQGTLVTVSS
VL: DIQMTQSPSSLSASVGDRVTITCRASQSINSYLAWYQQKPGKAPNLLIYAASNLQSGVPSRFSGSGSGTDFTLTISSLQPEDFATYYCQQSSSTFWTFGQGTKVEIK
notes: human IgE from hybridoma
B10: human IgE mAb 4G4 (antibody, V domains shown)
VH: B2 VH with E6Q, D10G, S28I, A58T, N84S, G88A
VL: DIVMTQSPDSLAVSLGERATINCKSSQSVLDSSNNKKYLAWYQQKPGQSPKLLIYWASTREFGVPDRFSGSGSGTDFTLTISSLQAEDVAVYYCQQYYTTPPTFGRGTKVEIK
notes: human IgE from hybridoma
B11: human IgE mAb 26A5 (antibody, V domains shown)
VH: QVQLVQSGSELRKPGASVKVSCKASGYTFTKYGMNWVRQAPGQGLEWMGWINTNTAKPTYAQDFTGRFVFSLDTSVNTAYLEISGLKAEDTAVYYCATDGSEGSWGQGTLVTVSS
VL: B7 VL with N28S, R31T, K42T, T49Y, E55K, T63S, T76S, F83V, T92N
notes: human IgE from hybridoma
B12: human IgE mAb 7B6 (antibody, V domains shown)
VH: QVQLQQWGAGLLKPSETLSLTCAVYGGSFNGYYWSWIRQPPGKGLEWIGEIDHSGSTNYNSSLKSRVTISVDTSKNQFSLKLSSVTAADTAVYYCARRRIGSLLKYFQDWGQGTLVTVSS
VL: SYELTQPPSVSVSPGQTASITCSGDKLGDSYVCWYQLKPGQSPVLVIYQDTKRPSGIPERFSGSNSGNTATLTISETQAMDEADYYCQAWDTTTDWVFGGGTKLTVL
notes: human IgE from hybridoma
B13: human IgE mAb 15A7 (antibody, V domains shown)
VH: QVQLVQSGPEVRKPGASVKVSCKTSGYMFTDYEMNWVRQAPGQGLEWMGLINPHSGDTGYAQKFQGRVSMTSDTSTRTFYLELTGLTSEDTAVYYCARSQGTFEVYYFVSWGQGSLVTVSS
VL: SYVLTQPPSVSVAPGKTASITCGAKNIATKRVHWYRQKPGQAPVVVVSDEEDRSSVIPERFSGSKSGDTATLEISRVEAGDEADYYCQVWDSLADQVVFGGGTKVTVL
notes: human IgE from hybridoma
B14: human IgE mAb 20G11 (antibody, V domains shown)
VH: QVQLVESGGGVVQPGGSLRLSCATSGFTFSSYGMHWVRQAPGKGLEWVAFIRYNGSNKYYADSVKGRFTISRDTSKNTLYLQMNSLRAEDSAVYYCAKDGDYDSWSGLTEHFQHWGQGTLVTVSS
VL: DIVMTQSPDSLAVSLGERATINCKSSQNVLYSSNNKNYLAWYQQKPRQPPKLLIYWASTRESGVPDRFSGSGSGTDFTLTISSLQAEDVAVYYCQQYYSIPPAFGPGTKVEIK
notes: human IgE from hybridoma
B15: human IgE mAb 11F10 (antibody, V domains shown)
VH: EVQLVESGGGLVQPGRSLRLSCAASGFTFDDYTMHWVRQAPGKGLEWVSSIRWNSGNLDYADSVKGRFTISRDNARHSLYLQMNSLRAEDTALYYCVKDNGLRTLDFWGQGTLVTVSS
VL: DIVMTQSPLSLPVTPGEPASISCRSSQSLLHRNGYNYLDWYLQKPGQSPQLLISLASNRASGVPDRFSGSGSGTDFTLKISRVEAEDVGVYYCMQALQTWTFGQGTKVELK
notes: human IgE from hybridoma

Numbering of substitutions follows the chain as printed.

These results are taken from patent publication US20240254209A1 (published 2024).

For one experiment, the target named is T1, peanut allergen Ara h 1. Put plainly: allergen specificity as listed in Table D.
B1: the binding result is “binds”.

As to B2, the binding result was “binds”.

For a further experiment, the target named is T2, peanut allergen Ara h 6. Put plainly: Phadia ImmunoCAP and/or ELISA and Western blot.
For the molecule B3, the binding result is “binds”.

Regarding B4, the binding result is listed as “binds”.

Take B5: the binding result is listed as “binds”.

As to B6, the binding result is recorded as “binds”.

Consider B7, for which the binding result was “binds”.

In another experiment the target is T3, peanut allergen Ara h 8 (peanut (Arachis hypogaea)).
T3 construct: ImmunoCAP component F352; also called F352
Put plainly: ImmunoCAP, hybridoma supernatant. As for the experimental part: (§1) Verification and validation of IgE mAbs peanut allergen specificity. Following the unbiased generation of IgE secreting human hybridomas from peanut allergic subject PBMCs, peanut protein binding and peanut allergen protein specificity was determined. Hybridoma culture supernatant was initially used for this validation. […] Using the available ImmunoCAP components (purified allergen proteins: Ara h 1, F422; Ara h 2, F423; Ara h 3, F424; Ara h 8 F352; Ara h 9 F427), the exact allergen specificity was determined for those which bound Ara h 1, 2, and 3.
(§2) Hybridoma cell culture supernatant was used for initial identification of allergen specificity using ImmunoCAP analysis. Peanut reactivity was first determined using peanut ImmunoCAP. Component analysis identified IgE antibodies specific for Ara h 1, 2, and 3. All antibodies not identified in this table were determined to bind Ara h 6.
B8: the “ImmunoCAP kUA/L” value came out at 0.51 kUA/L.

On to B9, for which the “ImmunoCAP kUA/L” value was found to be 0.42 kUA/L.

Take B10: the “ImmunoCAP kUA/L” value was determined as 0.34 kUA/L.

For B5, the “ImmunoCAP kUA/L” value is 0.53 kUA/L.

As to B11, the “ImmunoCAP kUA/L” value was 0.15 kUA/L.

As for B12, the “ImmunoCAP kUA/L” value was determined as 0.29 kUA/L.

A further experiment addresses T4, peanut allergen Ara h 9 (peanut (Arachis hypogaea)).
T4 construct: ImmunoCAP component F427; also called F427
Put plainly: ImmunoCAP, hybridoma supernatant. Here is the method: as §1, §2
B8: the “ImmunoCAP kUA/L” value was 0.46 kUA/L.

As for B9, the “ImmunoCAP kUA/L” value was 0.25 kUA/L.

For the molecule B10, the “ImmunoCAP kUA/L” value amounted to 0.19 kUA/L.

Take B5: the “ImmunoCAP kUA/L” value was 0.32 kUA/L.

In the case of B11, the “ImmunoCAP kUA/L” value is 0.14 kUA/L.

Take B12: the “ImmunoCAP kUA/L” value was 0.21 kUA/L.

For another experiment, the target named is T5, peanut allergen Ara h 3 (peanut (Arachis hypogaea)).
T5 construct: also called F424
Put plainly: ImmunoCAP, hybridoma supernatant. Here is the method: as §1, §2
As to B8, the “ImmunoCAP kUA/L” value stood at 3460 kUA/L.

For B9, the “ImmunoCAP kUA/L” value worked out at 1.15 kUA/L.

For the molecule B13, the “ImmunoCAP kUA/L” value stood at 0.14 kUA/L.

Take B10: the “ImmunoCAP kUA/L” value is 0.48 kUA/L.

As to B5, the “ImmunoCAP kUA/L” value is 0.83 kUA/L.

For B11, the “ImmunoCAP kUA/L” value came to 0.25 kUA/L.

With B12, the “ImmunoCAP kUA/L” value was 0.32 kUA/L.

A further experiment addresses T2, peanut allergen Ara h 6. Put plainly: told in the text.
With B14, the binding result was “binds”.

Turning to B15, the binding result is on record as “binds”.
